Experimental findings from publication PMC7414181 are described below.

Assay [1] deals with YU2wt gp120 (HIV-1 strain YU2) (UniProt P35961).
The target in assay [2] is YU2_(E466K) gp120 (HIV-1 (strain YU2)).
The target of assay [3] is YU2_(G366E) (HIV-1 (strain YU2)).
The target of assay [4] is YU2_(G458D) gp120 (HIV-1 (strain YU2)).
Assay [5] has as its target YU2_(G471R) gp120 (HIV-1 (strain YU2)).
Assay [6] addresses CD4-Ig (UniProt P01730).
For assay [7], the target named is CD4-Ig (UniProt P01730). Kind of assay: SPR; CD4-Ig captured on a protein A biosensor chip; monomeric gp120 proteins flowed over as a fourfold dilution series with a maximum concentration of 250 nM.

sCD4 D1D2 (domain or fragment) registered a Table S5: IC50 of sCD4 in the in vitro neutralisation of YU2wt pseudovirus on TZM-bl cells (blocks Env from CD4 on target cells) in assay [1] of 0.29 µg/mL. Also, the neutralization of YU2 mutant pseudovirus by sCD4, TZM-bl assay, loss of sensitivity against YU2wt in assay [2], in assay [3], in assay [4] and in assay [5] was 30 fold each time.

In the case of YU2E466K gp120 (natural protein), in assay [6], the Kd (as a rule, the free concentration of one partner at which half of the binding sites on the other are occupied at equilibrium, for simple one-to-one binding) was found to be 1.7 nM; the koff (in general, the rate constant with which the complex falls apart) stood at 0.00027 s⁻¹; the kon (as a rule, a measure of how fast the partners come together) is 160000 M⁻¹ s⁻¹.

With YU2G471R gp120 (natural protein), in assay [6], the Kd was 1.6 nM, the koff is 0.00021 s⁻¹ and the on-rate constant (kon) was determined as 140000 M⁻¹ s⁻¹.

In the case of YU2_(G458D) gp120 (natural protein), in assay [7], the fold faster dissociation than YU2wt gp120 was 11 fold.

In assay [6], YU2G458D gp120 (natural protein) yielded a Kd of 6 nM, a koff of 0.00121 s⁻¹ and an association rate constant (kon) of 200000 M⁻¹ s⁻¹.
